Measured values taken from patent publication US20060121047A1, “Use of hmgb polypetides for increasing immune responses” (priority 2002, published 2006).
Marks after values point to notes of the source that are not given here.

Experiments:
RAW 264.7 cells [1] = experiment: IL-1β release from RAW 264.7 cells (ELISA); format: cell-based, murine; settings: B box 0-10 μg/ml, 8 hours (FIG. 2B)
Procedure: Murine macrophage-like RAW 264.7 cells (American Type Culture Collection, Rockville, Md.) were cultured in RPMI 1640 medium (Life Technologies, Grand Island N.Y.) supplemented with 10% fetal bovine serum (Gemini, Catabasas, Calif.), penicillin and streptomycin (Life Technologies) and were used at 90% confluence in serum-free Opti-MEM I medium (Life Technologies, Grand Island, N.Y.). […] Polymyxin B was not used in experiments of synthetic peptide studies.
To further examine the effect of HMGB1 B box on cytokine production, varying amounts of HMGB1 B box were evaluated for the effects on TNF, IL-1B, and IL-6 production in murine macrophage-like RAW 264.7 cells. Conditioned media were harvested and measured for TNF, IL-1β and IL-6 levels. TNF levels were measured as described herein, and IL-1β and IL-6 levels were measured using the mouse IL-1β and IL-6 enzyme-linked immunosorbent assay (ELISA) kits (R&D System Inc., Minneapolis, 1) and N>5 for all experiments.

RAW 264.7 cells [2] = experiment: TNF mRNA expression in RAW 264.7 cells (RNase protection assay); format: cell-based, murine; settings: 10 μg/ml
Procedure: The kinetics of B box-induced TNF release was also examined. TNF release and TNF mRNA expression was measured in RAW 264.7 cells induced by B box polypeptide or GST tag polypeptide only used as a control (vector) (10 μg/ml) for 0 to 48 hours. Supernatants were analyzed for TNF protein levels by an L929 cytotoxicity assay (N=3-5) as described herein. For mRNA measurement, cells were plated in 100 mm plate and treated in Opti-MEM I medium containing B box polypeptide or the vector alone for 0, 4, 8, or 24 hours, as indicated in FIG. 2D. The vector only sample was assayed at the 4 hour time point. Cells were scraped off the plate and total RNA was isolated by RNAzol B method in accordance with the manufacturer's instructions (Tel-Test “B”, Inc., Friendswood, Tex.). TNF (287 bp) was measured by RNase protection assay (Ambion, Austin, Tex.). Equal loading and the integrity of RNA was verified by ethidium bromide staining of the RNA sample on agarose-formaldehyde gel. […] TNF mRNA expression was maximal at 4 hours and decreased at 8 and 24 hours. […] A similar study was carried out measuring TNF protein released from RAW 264.7 cells 0, 4, 8, 24, 32 or 48 hours after administration of B box or vector only (GST tag), using the L929 cytotoxicity assay described herein. […] Data are representative of three separate experiments.

[3] = tested on: D-galactosamine-sensitized Balb/c mice; experiment: Serum cytokine levels in D-galactosamine-sensitized Balb/c mice; format: in vivo; settings: 1 mg/mouse i.p. plus D-gal, 7 hours
Procedure: To further assess the lethality of the HMGB1 B box protein in vivo the HMGB1 B box was again administered to D-galactosamine-sensitized Balb/c mice. Mice (3 per group) received D-gal (20 mg/mouse) plus B box or vector (1 mg/mouse) intraperitoneally for 7 hours and were then sacrificed by decapitation. Blood was collected, and organs (liver, heart, kidney and lung) were harvested and fixed in 10% formaldehyde. Tissue sections were prepared with hematoxylin and eosin staining for histological evaluation (Criterion Inc., Vancouver, Canada). […] In FIG. 4J, hepatocyte dropouts are seen surrounded by accumulated polymorphonuclear leukocytes. The arrows in FIG. 4J point to the sites of polymorphonuclear accumulation (dotted) or apoptotic hepatocytes (solid).

[4] = tested on: D-galactosamine-sensitized Balb/c mice; experiment: Toxicity (survival) in D-galactosamine-sensitized Balb/c mice; format: in vivo; settings: for Alive/total: survival monitored up to 7 days
Excerpt: Male 6-8 week old Balb/c and C3H/HeJ mice were purchased from Harlen Sprague-Dawley (Indianapolis, Ind.) and were allowed to acclimate for 7 days before use in experiments. All animals were housed in the North Shore University Hospital Animal Facility under standard temperature, and a light and dark cycle.
The D-galactosamine-sensitized model has been described previously (Galanos et al., Proc Natl. Acad. Sci. USA 76: 5939-5943, 1979; and Lehmann et al., J. Exp. Med. 165: 657663, 1997). Mice were injected intraperitoneally with 20 mg D-galactosamine-HCL (Sigma)/mouse (in 200 μl PBS) and 0.1 or 1 mg of either HMGB1 B box or vector protein (in 200 μl PBS).
To investigate whether the HMGB1 B box has cytokine activity in vivo, we administered HMGB1 B box protein to unanesthetized Balb/c mice sensitized with D-galactosamine (D-gal), a model that is widely used to study cytokine toxicity (Galanos et al., supra). Briefly, mice (20-25 gram, male, Harlan Sprague-Dawley, Indianapolis, IN) were intraperitoneally injected with D-gal (20 mg) (Sigma) and B box (0.1 mg/ml/mouse or 1 mg/ml/mouse) or GST tag (vector; 0.1 mg/ml/mouse or 1 mg/ml/mouse), as indicated in Table 1. […]

B1: B box: Recombinant GST-system human HMGB1 mutant containing only the B box, 74 amino acids, SEQ ID NO: 20 (protein, listed as Homo sapiens)
chain: FKDPNAPKRLPSAFFLFCSEYRPKIKGEHPGLSIGDVAKKLGEMWNNTAADDKQPYEKKAAKLKEKYEKDIAAY
modifications: GST system
B1 was tested, and the “IL-1β release, dose dependence” value (RAW 264.7 cells [1]) was “addition of 1 μg/ml or 10 μg/ml of B box resulted in increased release”, the “IL-1β release, dose dependence” value (RAW 264.7 cells [1]; listed as HMGB1 B box) was “dose-dependently stimulated release” and the “time of maximal TNF mRNA expression” value (RAW 264.7 cells [2]) was 4 h. For the same molecule, the “TNF mRNA expression” value (RAW 264.7 cells [2]; 0, 4, 8 or 24 hours (vector at 4 hours) (FIG. 2D)) was “increased significantly”, the “serum levels of IL-1β” value [3] was 15+3 pg/ml and the “serum levels of IL-6” value [3] was 315+93 pg/ml. For the same molecule, the Alive/total ([4]; 0.1 mg/mouse i.p. with D-gal 20 mg) was 6/6, the Alive/total ([4]; 1 mg/mouse i.p. with D-gal 20 mg) was 2/8* and the lethality ([4]; 0.1 or 1 mg/mouse i.p.) was “lethal to D-galactosamine-sensitized mice in a dose-dependent manner”. The time of death ([4]; instances in which death occurred) was no more than 12 h and the “late deaths among survivors” value ([4]; survivors followed for 2 weeks) was “no later deaths from B box toxicity were observed”.
